Literature values, collected in article PMC12608911.
Where two headings read alike, the source gives them in different places. Values belong to the substance of their own block, whether it stands above or below them.

Tests used:
TREM-1 (Homo sapiens) [1] = target: TREM-1 (Homo sapiens) (UniProt Q9NP99)
Target sequence in this assay (Q9NP99 21-205): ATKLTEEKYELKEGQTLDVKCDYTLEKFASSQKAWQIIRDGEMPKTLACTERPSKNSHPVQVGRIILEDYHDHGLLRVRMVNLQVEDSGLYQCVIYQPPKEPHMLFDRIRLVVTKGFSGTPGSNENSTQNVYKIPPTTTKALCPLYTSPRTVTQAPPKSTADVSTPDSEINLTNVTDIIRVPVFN

TREM-1 (Homo sapiens) [2] = target: TREM-1 (Homo sapiens) (UniProt Q9NP99); remark: listed apart in the source
Target sequence in this assay (Q9NP99 21-205): as above

TREM-1 (Mus musculus) [3] = target: TREM-1 (Mus musculus) (UniProt Q9JKE2)
TREM-1 (Mus musculus) [4] = target: TREM-1 (Mus musculus) (UniProt Q9JKE2); remark: listed apart in the source
TREM-1 (Mus musculus) [5] = target: TREM-1 (Mus musculus) (UniProt Q9JKE2); remark: listed apart in the source
TREM-1 (Homo sapiens) [6] = target: TREM-1 (Homo sapiens) (UniProt Q9NP99); remark: listed apart in the source
Target sequence in this assay (Q9NP99 21-234): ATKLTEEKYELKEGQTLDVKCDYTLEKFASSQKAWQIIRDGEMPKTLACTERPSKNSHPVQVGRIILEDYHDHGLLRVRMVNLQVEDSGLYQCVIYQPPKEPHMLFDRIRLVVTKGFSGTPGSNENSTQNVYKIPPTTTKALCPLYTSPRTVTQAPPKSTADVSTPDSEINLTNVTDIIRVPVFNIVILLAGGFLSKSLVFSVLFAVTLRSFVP

TREM-1 (Homo sapiens) [7] = target: TREM-1 (Homo sapiens) (UniProt Q9NP99); remark: listed apart in the source
Target sequence in this assay (Q9NP99 21-205): as the sequence (Q9NP99 21-205) above

Sequence of TREM-1 (Mus musculus) (Q9JKE2 21-230): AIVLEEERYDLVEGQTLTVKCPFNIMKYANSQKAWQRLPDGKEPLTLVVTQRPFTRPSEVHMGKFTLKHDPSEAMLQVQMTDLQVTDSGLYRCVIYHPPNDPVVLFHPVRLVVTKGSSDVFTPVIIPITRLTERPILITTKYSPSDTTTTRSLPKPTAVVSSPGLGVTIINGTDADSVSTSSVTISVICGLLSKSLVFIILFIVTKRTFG
Sequence of CIRP (P60824 whole entry): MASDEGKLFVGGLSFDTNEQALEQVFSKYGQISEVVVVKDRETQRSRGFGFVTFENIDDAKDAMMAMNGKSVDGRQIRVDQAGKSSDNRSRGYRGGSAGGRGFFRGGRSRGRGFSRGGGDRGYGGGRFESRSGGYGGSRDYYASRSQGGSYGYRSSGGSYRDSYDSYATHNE
Sequence of eCIRP (P60824 whole entry): as above
Sequence of HSP70 N7 peptide (P0DMV8 2-641): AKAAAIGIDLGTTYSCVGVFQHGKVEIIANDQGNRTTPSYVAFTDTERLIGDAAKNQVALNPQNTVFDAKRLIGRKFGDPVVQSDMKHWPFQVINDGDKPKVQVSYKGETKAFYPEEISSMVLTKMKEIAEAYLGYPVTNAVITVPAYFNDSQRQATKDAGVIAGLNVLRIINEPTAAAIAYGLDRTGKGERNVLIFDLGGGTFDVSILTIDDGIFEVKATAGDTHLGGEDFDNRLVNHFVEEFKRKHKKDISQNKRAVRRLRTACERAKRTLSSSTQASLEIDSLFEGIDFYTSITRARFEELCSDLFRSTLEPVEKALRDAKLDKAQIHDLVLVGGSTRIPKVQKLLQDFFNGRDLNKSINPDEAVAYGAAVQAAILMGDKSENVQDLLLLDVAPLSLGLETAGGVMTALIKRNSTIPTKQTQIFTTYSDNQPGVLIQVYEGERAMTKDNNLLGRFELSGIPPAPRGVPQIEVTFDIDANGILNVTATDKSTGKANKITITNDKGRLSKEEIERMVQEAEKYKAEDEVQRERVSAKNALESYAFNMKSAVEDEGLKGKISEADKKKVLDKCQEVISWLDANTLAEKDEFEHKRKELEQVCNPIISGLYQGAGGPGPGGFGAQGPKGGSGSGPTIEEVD
Sequence of HMGB1 (P63158 whole entry): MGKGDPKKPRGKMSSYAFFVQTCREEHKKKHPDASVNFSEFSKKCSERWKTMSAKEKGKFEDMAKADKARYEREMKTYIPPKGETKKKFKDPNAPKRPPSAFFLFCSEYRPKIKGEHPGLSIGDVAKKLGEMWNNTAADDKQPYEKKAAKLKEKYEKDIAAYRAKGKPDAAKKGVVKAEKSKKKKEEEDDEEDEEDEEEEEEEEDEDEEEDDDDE
Sequence of PGLYRP1 peptide N9 (O75594 22-196): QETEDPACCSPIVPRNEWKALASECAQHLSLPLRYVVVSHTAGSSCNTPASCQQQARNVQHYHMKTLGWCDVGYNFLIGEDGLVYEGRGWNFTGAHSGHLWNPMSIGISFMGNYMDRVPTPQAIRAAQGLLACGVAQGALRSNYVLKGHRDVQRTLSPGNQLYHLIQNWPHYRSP
Sequence of PGLYRP1 peptide N15 (O75594 22-196): as above
Sequence of PGLYRP1 peptide 17 (O75594 22-196): as above

Substance: PGLYRP1 peptide 17 (from UniProt O75594)
- Kd (TREM-1 (Homo sapiens) [2]): 1.3 nM

Substance: HMGB1 (from UniProt P63158)
- Kd (TREM-1 (Mus musculus) [3]): 35400 nM

Substance: HSP70 N7 peptide (from UniProt P0DMV8)
- Kd (TREM-1 (Homo sapiens) [6]): 1.6 nM

Now from value to substance:

- Kd (TREM-1 (Homo sapiens) [1]): 7.4 nM
Substance: PGLYRP1 peptide N15 (from UniProt O75594)

- Kd (TREM-1 (Mus musculus) [4]): 117 nM
Substance: eCIRP (from UniProt P60824)

- Kd (TREM-1 (Mus musculus) [5]): 120 nM
Substance: CIRP (from UniProt P60824)

- Kd (TREM-1 (Homo sapiens) [7]): 9.7 nM
Substance: PGLYRP1 peptide N9 (from UniProt O75594)
